Data as given in paper PMC2680030.

Biological target: ULBP1 (UniProt Q9BZM6)
Chain of UniProt Q9BZM6 (Q9BZM6 26-216): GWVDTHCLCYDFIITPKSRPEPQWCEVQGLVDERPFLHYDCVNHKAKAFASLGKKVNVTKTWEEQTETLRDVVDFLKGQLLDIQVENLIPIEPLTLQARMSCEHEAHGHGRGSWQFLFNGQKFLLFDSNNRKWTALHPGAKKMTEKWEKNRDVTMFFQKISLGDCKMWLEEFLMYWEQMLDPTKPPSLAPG

Chain of NKG2D (P26718 whole entry): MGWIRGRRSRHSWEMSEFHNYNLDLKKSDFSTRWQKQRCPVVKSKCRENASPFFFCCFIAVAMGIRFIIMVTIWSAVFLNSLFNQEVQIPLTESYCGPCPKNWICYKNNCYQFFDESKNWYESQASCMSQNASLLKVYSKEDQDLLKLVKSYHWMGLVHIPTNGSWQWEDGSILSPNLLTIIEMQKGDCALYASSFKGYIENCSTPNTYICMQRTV

Q: How did the specific killing via NKG2D: killing of C1R/ULBP1 (37%) minus killing of C1R/Mock (20%) by primary bulk NK culture NK-A.K., effector-to-target ratio 5:1, PI co-staining of CFSE-labelled target cells turn out when “NKG2D (from UniProt P26718 1-216) (receptor)” was run?
A: 17%
